{"source": "FireProtDB (doi:10.1021/bi961660c)", "proteins": {"B1": {"name": "Tryptophan synthase alpha chain wild type, P0A877 (protein)", "chain": "MERYESLFAQLKERKEGAFVPFVTLGDPGIEQSLKIIDTLIEAGADALELGIPFSDPLADGPTIQNATLRAFAAGVTPAQCFEMLALIRQKHPTIPIGLLMYANLVFNKGIDEFYAQCEKVGVDSVLVADVPVEESAPFRQAALRHNVAPIFICPPNADDDLLRQIASYGRGYTYLLSRAGVTGAENRAALPLNHLVAKLKEYNAAPPLQGFGISAPDQVKAAIDAGAAGAISGSAIVKIIEQHINEPEKMLAALKVFVQPMKAATRS"}}, "settings": "Escherichia coli (strain K12), pH 7, 25 °C, GdnHCl, CD, Tris-HCl 20 mM, reversible: yes, whole UniProt chain shown", "note": "Where “and” joins values, the source holds several entries; their conditions need not be identical. Identical values can stand only once."}
{"protein": "B1", "values": [{"measurement": "unfolding free energy", "value": 8.21, "unit": "kcal/mol"}, {"measurement": "unfolding free energy", "setting": "transition: 3", "value": "4.23 kcal/mol and 4 kcal/mol"}]}
